Measured values taken from patent publication US8444970B2, “Compositions and methods for treating ocular diseases and conditions” (Lpath, Inc., priority 2006, dated 2013).

Experiments:
[1] = system: CNV lesions after laser rupture of Bruch's membrane; assay: CNV animal model of AMD, murine vs humanized mAbs (Example 17); assay type: in vivo, mouse; settings: 0.5 ug intravitreal Day 0 and Day 6, 14 days post laser
Procedure: The humanized antibody variants and the murine antibody were compared for their ability to inhibit neo-vascularization in the CNV animal model of AMD as shown in FIG. 13. […] Mice were sacrificed 14 days post laser surgery. Control mice were treated with aqueous buffer (PBS) or an isotype-matched non-specific antibody. Three of the humanized variants inhibited angiogenesis essentially equivalently to the murine antibody as assessed by measurement of CNV area. CNV lesion volumes are represented as means±SEM. […]
The morphometric and volumetric CNV lesions were measured as follows. […]
Captured digital images were evaluated morphometrically using ImageJ software (Research Services Branch, National Institutes of Health, Bethesda, Md.). Images were split into separate RGB channels for analysis of the red and green channels as follows: 1) a calibration for the specific objective and microscope was applied to set the pixel-to-length ratio; 2) a threshold was applied using the Otsu algorithm; 3) images will be made binary; 4) a region-of-interest (ROI) was outlined to include the entire lesion area; 5) a particle analysis was performed to quantify the pixel area above the threshold level within the ROI. […]

[2] = system: ovarian cancer (OVCAR3) cells; assay: S1P-induced IL-8 release from ovarian cancer cells; assay type: cell-based; settings: 1 uM S1P, 22 hours
Procedure: FIG. 12. FIG. 12 has two panels, A and B, that show data from in vitro cell assays performed using several humanized monoclonal antibody variants. […] As described in Example 16, below, SKOV3 cells were treated for 48 hr. with 500 nM Taxol (Tax) in the presence or absence of 500 nM S1P with huMAbHCLC3 (309), huMAbHCLC5 (308), muMAb S1P (muMAb), or non-specific IgG1 (NS) at a concentration of 1 μg/mL. Values represent means±SEM (n=3) with triplicates run for each data point. “NT” means not treated, and “Veh” stans for vehicle only. […] In the experiments described in detail in Example 16, below, 100,000 OVCAR3 cells/well were starved overnight and 1 uM S1P was added to the culture media alone or pre-incubated with 1 ug/ml of non-specific antibody (NS), pATH201+pATH309 (LC3), pATH201+pATH308 (LC5), pATH207+pATH309 (cysLC3), pATH207+pATH308 (cysLC5), and 0.1 ug/ml (M0.1), 1 ug/ml (M1) or 10 ug/ml (M10) of anti-S1P murine antibody. After 22 hours of incubation, cell supernatants were collected and IL-8 secretion was measured by ELISA using an R&D system Quantikine human CXCL8/IL-8 kit. In the figure “NT” refers to non-treated cells.
In parallel, all the variants were tested for their effects on S1P-induced cytokine release from cancer cells. S1P is known to elicit significant release of IL-8 into the cell-conditioned media from cancer cells.

B1: LT1002: murine anti-S1P monoclonal antibody, IgG1 kappa, hybridoma clone 306D326.26 (antibody, listed as Mus sp., V domains shown)
VH: QAHLQQSDAELVKPGASVKISCKVSGFIFIDHTIHWMKQRPEQGLEWIGCISPRHDITKYNEMFRGKATLTADKSSTTAYIQVNSLTFEDSAVYFCARGGFYGSTIWFDFWGQGTTLTVS
VL: ETTVTQSPASLSMAIGEKVTIRCITTTDIDDDMNWFQQKPGEPPNLLISEGNILRPGVPSRFSSSGYGTDFLFTIENMLSEDVADYYCLQSDNLPFTFGSGTKLEIK
- Percent inhibition of lesion size [1]: approximately 80%
- IL-8 release [2]: reduced IL-8 release
